Literature values, collected in patent US20230002502A1, “METHODS AND PRODUCTS FOR REDUCING SIDE EFFECTS ASSOCIATED WITH USE OF IMMUNE AGONIST ANTIBODIES” (South Australian Health and Medical Research Institute …, priority 2019, published 2023).
“Also recorded” adds a separate entry of the source. Like-named read-outs stand apart in the source and are kept apart here.

Test system: patients
Conditions: for toxicity reported in clinical trials: patients

urelumab: an anti-CD137 IAA, IgG4
clinical trial results at lower dose (8 mg/patient, alone or in combination with anti-PD1): overall disappointing results
toxicity reported in clinical trials: severe dose-dependent liver toxicity; also recorded: high rates of dose dependent liver toxicity, resulting in several deaths
toxicity reported in clinical trials (listed as Urelumab): severe (grade 3 and above) liver damage
